# According to the nanobody polyreactivity screen of Harvey et al. (2022):
# Experiment: yeast display, Sf9 membrane polyspecificity reagent, FACS + sequencing; frameworks hold sequencing errors
# How it was run: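 Genes from sorted yeast were amplified by colony PCR, read by MiSeq 2 × 250 sequencing and filtered on CDR length. These cells carried a synthetic nanobody library in Saccharomyces cerevisiae BJ5465 and were sorted by FACS into low and high (top ~1%) gates on anti-HA and streptavidin fluorescence. Polyreactivity is labelled according to the gate of origin.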
row,Sequence,polyreactivity (PSR sort gate)
1,QVQLVESGGGLVQAGGSLRLSCAASGRIFYYYDMGWYRQAPGKERELVATMSGIGGSTYYADSVKGLFTISRDHAKNTVYLQMNSLKPEDTAVYYCNADYPTSYPLFKTGFDYWGQGTQVTVSS,low polyreactivity
2,QVQHVESGGGLVQAGGSLRLSCAASGSIFVPYALGWSRQAPGKEREFVAVISLRGSRTYYADSVKGRFTISRDNAKNTVYLQMNSLKPEDTAVYYCATTGYRLRQATRYDYRGQGTQVTVSS,high polyreactivity
3,QVQLVESGGGLVQAGGSLRLSCAASGNTFGLYAMGWYRQAPGKERELVATITWSVSTYADSVKGRFTISRDNAKNTVYLQMNSLKPEDTAVYYCAATTGPWYWRYDYWGQGTQVTVSS,high polyreactivity
4,QVQLVESGGGLVQAGGSLRLSCAASGSTFFIKAMGWYRQAPGKERELVAAITSTDSTTYADSVKGRFTISRDNAKNTVYLQMNSLKPEDTAVYYCAKETIGQDPVSGAWARHEYDYWGQGTQVTVSS,low polyreactivity
5,QVQLVESGGGLVQAGGSLRLSCAASGRTFYLYAMGWYRQAPGKERELVDTITESVGNTYYADSVKGRFTISRDNAKNTVYLQMNSLKPEDTAVYYCAATYKYYLYQPKTLFREGDYWGQGTQVTVSS,low polyreactivity
6,QDQLVESGGGLVQAGGILRLSCAASGSTFFHYAMGWYRQAPGQEREFVAANDSNGGSTYYADSVKGRFSISRDNAKNTVYLQMTCLKPEETAVNYCAADDLAEFEYDYWGQGTQVTVSS,low polyreactivity
7,QVQLVESGGGLVQAGGSLRLSCAAYGSTFVLYGMGWYRQAPGKEWELVAAISTSGGRTYYADSEKGRFTISRDNAKNSVSLQMNSLKPEDTAVYYCAALTYVAHYDEYWGQGTQVTVSS,low polyreactivity
8,QVQLVESGGGLVQAGGSLRLSCAASGFTLYSNTMGWYRQAPGKERELVAAINYSGGSTYYADSVKGRFTISRDNAKNTVYLQMNSLKPQDTAVYYCATDLHWLVTKYGYWGQGTQVTVSS,low polyreactivity
9,QVQLVESGGGLVQAGGSLRLSCAASGRIFYFYAMGWYRQAPGKERELVAAITSGGGTYYADSVKGRFTISRDNAKNTVYLQMNSLKPEDTAVYYCDVRVYRTSWQGYYYWGQGTQVTVSS,high polyreactivity
10,QVQLVESGGGLVQAGGSLRLSCAASGIIFAYYAMGWYRQAPGKETELVAAINRSGGTTYYADSVKGRFTISRDNAKNTVYLQMNSLKPEDTAVYYCNALTTWRYRYDYWGQGTQVTVSS,high polyreactivity
11,QVQLVESGGGLVQAGGSLRLSCAASGSIFTLNAMGWYRQAPGKERELVAAISRSGGSTYYADSVKGRFTISRDNAKNTVYLQLNSLKPEDTAVYYCAVYVTRDSGWWLYDYWGQGTQVTVSS,high polyreactivity
12,QVQLVESGGGLVQAGGSLRLSCAASGSIFFRYTMGWYRQAPGKERELVAAITGSGGSTYYADSVKGRFTISRDNAKNTVYLQMNSLKPEDTAVYYCARPGWGRYEYWGQGTQVTVSS,high polyreactivity
13,QVQLVESGGGLVQAGGSLRLSCAASGSTFGSNAMGWYRQAPGKERELVAAISSIGGSTYYADSVKGRFTISRDNAKNTVYLQMNSLKTEDTAVYYCAAKYYGRYYRYLGSSFDYWGQGTQVTVSS,high polyreactivity
14,QVQLVESGGGLVQAGGSLRLSCAASGITFRQNTMGSYRQAPGKEGELVAAITSSGRTYYADSVKGRFTISRDNAKNTVYLQMNSLKPEDSAVYYCAADTYYFGYGYWGQGTQVTVSS,high polyreactivity
15,QVQLVESGGGLVQAGGSLRLSCAASGRIFNPNAMGWYRQAHGKESELVAAISGSGGSTYYADSVKGRFTISRDNAKNTVNLQMNSLKPEDTAVYYCNKLLSQRRYHSEMDYWGQGTQVTVSS,high polyreactivity
16,QVQLVESAGGLVQAGGSLRLSCAASGRTITFNTMGLYRQAPGKERELVAGIDRGGSTNYADSVKGRFTISRDNAKNTVYLQMNSLKPEDTAVYYCAADPPGYVYGKRYYWGQGTQVTVSS,high polyreactivity
17,QVQLVESVGGLVQAGGSLRLSCAASGSTFYHYAMGWYRQAPGKVRELVASISHSGGRTFYADSVKGRFTISRDNAMNTVYLQMNSLKPEDTAVYYCAADWRTRYDYWGQGTQVTVSS,low polyreactivity
18,QDQLVESGGGLLQAGGSLRLSCAASGSTIGYYAMGWYRQAPGKERELVAAINSGDSTSYADSVKGRFTISRDNAKNTVYLQMNSLKPEDTAVYYCAVRPRRHQYGYWGQGTQVTVSS,low polyreactivity
19,QVQLVESGGGLVQAGRSLRLSCAASGYIFDTNAMGWYRQAPGKERELVAAITKSGGSTYYADSVKGRFTISRDNAKNTVYLHMNSLKPEDTAVYYCAARGTSKRWSLYDYWGQGTQVTVSS,low polyreactivity
20,QVQLVESGGGLVQAGGSLRLSCAASGITFRGYAMGWYRQAPGKERELVADITWNGGSTYYADSVKGRFTISRDNAKNTVYLQMNSLKPEDTAVYYCAADGYPIYWSSYRFYYWGQGTQVTVSS,high polyreactivity
21,QAQRVESGGGLGQAGGSLRLSCAASGRTFVRYTMGWYRQAPGKERELVAAISRSGGSTYYADSVKRRYTISRANAKNTVYLQLNSLKPEDTAVYYCAARRNAYHRDYYWGQGTQVTVSS,high polyreactivity

row,Sequence,polyreactivity (PSR sort gate)
1,QVQLVESGGGLVQAGGSLRLSCAASGRIFKFYAMGWYRQAPGKERELVAAISRTGGNTYYADSVKGRFTISRDNAKNTVYLQMNSLKPEDTAVYYCAAETYARSSSSKYEYWGQGTQVTVSS,high polyreactivity
2,QVQHVESGGGLGQAGGILRLSCAGCGRTFVRYAMGWYRQAPGNERELVAAITRSASTYYADSVKGRFTISRDNAKKTVDLQMTSLKPEDTSVYYCNAVWSRYRDLDFWGQGTQVTVSS,high polyreactivity
3,QVQLVESGGGLVQAGGSLRLICAASGYTFAFYAMGWYRQAPGKEREFVASINWNGSSTYADSVKGRFTISRDNAKNTVYLQMNSLKPEDTAVYYCNADYNRNSVQFSLYDYWGQGTQVTVSS,low polyreactivity
4,QVQLVESGGGLVQAGGSLRLSCAASGRTFGWYAMGWYRQAPGKERELVAAITSGTSTYYADSVKGRFTISRDNAKNTVYLQMYSLKPEDTAVYYCAVDRGISVGYTRFDYWGQGTEVTVSS,low polyreactivity
5,QVQLVESGGCLVQAGGSLRLSCAASGSIIWYYAMGWYRQAPGKERELVAAISTGGSTYYADSVKGRFTISRDNAKNTVYLQMNSLKPEDTAVYYCAAGAFGQILNYWGQGTQVTVSS,high polyreactivity
6,QVQLVESGGCLVQAGGSLRLSCAASVRIFQIYAMGWYRQAPGKERELVATISSGTRTYYADSVKGRFTMSRDNAKNTVYLQMNSLKPEDTAVYYCAKTYATRHAYWAGTRYEDDYWGQGTQVTVSS,high polyreactivity
7,QVQLQESGGLVQAGGSLRLSCAASGSISGRNVMGWYRQAPGKEREFVASITDGSSTNYADSVKGRFTISRDNAKNTVFLQMNSLKPKDTAVYYCAAYAQGAKSFGYWGRGTQVTVSS,low polyreactivity
8,QVQLVESGGGLVQAGGSLRLRCAASGSIFPYNAMGWYRQAPGKERELVAAISKRGRSTYYADSVKGRFTISRDNAKNTVYLHMNSLKPEDTAVYYSAARYPPYRSWYSYDYWGQGTQVTVSS,low polyreactivity
9,QVQLVESGGGLVQAGGSLRLSCAASGRIFVPYVMGWYRQAPGKERELVASISDSDTSTYYADSVKGRFTISRDNATNTVYLQMNSLKPEDTAVYYCNVDYWGQGTQVTVSS,low polyreactivity
10,QVQLVESGGGLVQAGGSLRLSCAASGIIFYGYAMGWYRQATGKERELVAAISSGGGTNYADSVKGRFTISRDNAKNTVYLQMNSLKPEDTAVYYCAARQYRYYYWGQGTQVTVSS,high polyreactivity
11,QVQLVESGGGLVQAGGSLRLSCAASGRTFSRYAMGWYRQAPGKERELVATISSSGGTTYYADSVKGRFTISRDNAKNTVYLQLNSLKPEDTAVSYCNSEYKIRTHASGFDYWGQGTQVTVSS,low polyreactivity
12,QVQLVESGGGLVQAGGSLRVSCAASGRIFWYNDMGWYRQAPGKERELVAAITARGTRTHYADSVKGRFTISRDNAKKTVYLQMNSLKPEDTAVYYCAKGWYTVVWDAPVFSERGEYWGQGTQVTVSS,low polyreactivity
13,QVQLVESGGGLVQAGGSLRLSCAASGSTFSDNAMGWYRQAPGKERELVAAISVTGGRTYYADSVKGRFTISRDNAKNTVYLQMNSLKPEDTAVYYCAKVTILDPYSYDYWGQGTQVTVSS,low polyreactivity
14,QVQLVESGVGLVQAGGSLRLSCAASGFIFPYYTMGWYRQAPGKERELVAAISASSGRTYYADSVKGRFTISSDNAKNTVYLQMNSLKPEDTAVYYCAAKTYEPRKYEYWGQGTQVTVSS,high polyreactivity
15,QVQLVESGGGLVQAGGSLRLSCAASGRIFHRNAMGWYRQAPGKERELVARITRSGTSTYYADSVKGRFTISRDNAKNTVYLQMNSLKQEDTAVYYCAADNASPSLGEYNYWGQGTQVTVSS,low polyreactivity
16,QVQLVDSAGGLVQSGGSQRLSCAASGSIFHVYPMGCYRQAPGKERELVAAIRRRGGSTYYADSVKGRFTISRDTAKNTVYLQMNSLKPEDTAVYYCAARSVGFYRYDYWGQGTQVTVSS,low polyreactivity
17,QVQLVESGGGLVQAGGSLRLSCAASGFTFKGNAMGWYRQAPGKERELVATITQSAGSTYYADSVKGRFTISRDNAKNTVYLQMNSLKPEDTAVYYCAAYLSETRPYLYDYWGQGTQVTVSS,low polyreactivity
18,QVQLVESGGGLVQAGGSLRLSCAASGIFIDSNAMGWNRQAPGKERELVAAITSGGSTKYADSVKGRFTISRDTAKNTVYLQMNSLKPVDTAVYYCNAGPAVRSAYSTPYYDYWGLGTQVTVSS,low polyreactivity
19,QVHRVESGGRLVPAGGSLRLSCAASGFTFSVNAMGWYTPPPGKEMELVAAISSGGSTSYADSVKGRFTISRDNAKNTVYLQMNSLKPEDTAVYYCAAEYHSAGSLYTYSKYYHWGQGTQVTVSS,low polyreactivity
20,QVQLVESGGGLVQAGGSLRLSCAASGRTFIGYAMGWYRQAPGKERELVAAISSGGNTYYADSVKGRFTISRDNAKNTVYFQMNSLKPEDTAVYYCAAKGYRRVARYFIGDYWGQGTQVTVSS,low polyreactivity
